Measured values published in publication PMC2566858 (Nucleic Acids Research, 2008).
Like-named read-outs stand apart in the source and are kept apart here.

T1: rGyr_hel K106Q (Thermotoga maritima, UniProt O51934 59-541, K106Q)
T1 sequence: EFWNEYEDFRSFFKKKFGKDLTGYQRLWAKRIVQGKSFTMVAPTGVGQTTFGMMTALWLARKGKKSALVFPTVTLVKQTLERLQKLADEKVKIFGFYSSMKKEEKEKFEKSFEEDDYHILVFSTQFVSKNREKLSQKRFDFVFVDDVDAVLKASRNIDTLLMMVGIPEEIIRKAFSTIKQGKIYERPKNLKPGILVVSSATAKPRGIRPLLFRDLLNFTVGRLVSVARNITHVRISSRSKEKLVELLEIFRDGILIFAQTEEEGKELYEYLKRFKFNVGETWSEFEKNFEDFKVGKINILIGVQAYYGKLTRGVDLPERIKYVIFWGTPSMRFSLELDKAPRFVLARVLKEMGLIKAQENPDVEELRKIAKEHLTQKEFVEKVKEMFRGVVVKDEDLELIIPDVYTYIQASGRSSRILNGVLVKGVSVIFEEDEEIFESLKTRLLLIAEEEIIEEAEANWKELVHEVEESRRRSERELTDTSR

T2: rGyr_fl Y851F (full-length reverse gyrase) (Thermotoga maritima, UniProt O51934 1-1104, Y851F)
T2 sequence: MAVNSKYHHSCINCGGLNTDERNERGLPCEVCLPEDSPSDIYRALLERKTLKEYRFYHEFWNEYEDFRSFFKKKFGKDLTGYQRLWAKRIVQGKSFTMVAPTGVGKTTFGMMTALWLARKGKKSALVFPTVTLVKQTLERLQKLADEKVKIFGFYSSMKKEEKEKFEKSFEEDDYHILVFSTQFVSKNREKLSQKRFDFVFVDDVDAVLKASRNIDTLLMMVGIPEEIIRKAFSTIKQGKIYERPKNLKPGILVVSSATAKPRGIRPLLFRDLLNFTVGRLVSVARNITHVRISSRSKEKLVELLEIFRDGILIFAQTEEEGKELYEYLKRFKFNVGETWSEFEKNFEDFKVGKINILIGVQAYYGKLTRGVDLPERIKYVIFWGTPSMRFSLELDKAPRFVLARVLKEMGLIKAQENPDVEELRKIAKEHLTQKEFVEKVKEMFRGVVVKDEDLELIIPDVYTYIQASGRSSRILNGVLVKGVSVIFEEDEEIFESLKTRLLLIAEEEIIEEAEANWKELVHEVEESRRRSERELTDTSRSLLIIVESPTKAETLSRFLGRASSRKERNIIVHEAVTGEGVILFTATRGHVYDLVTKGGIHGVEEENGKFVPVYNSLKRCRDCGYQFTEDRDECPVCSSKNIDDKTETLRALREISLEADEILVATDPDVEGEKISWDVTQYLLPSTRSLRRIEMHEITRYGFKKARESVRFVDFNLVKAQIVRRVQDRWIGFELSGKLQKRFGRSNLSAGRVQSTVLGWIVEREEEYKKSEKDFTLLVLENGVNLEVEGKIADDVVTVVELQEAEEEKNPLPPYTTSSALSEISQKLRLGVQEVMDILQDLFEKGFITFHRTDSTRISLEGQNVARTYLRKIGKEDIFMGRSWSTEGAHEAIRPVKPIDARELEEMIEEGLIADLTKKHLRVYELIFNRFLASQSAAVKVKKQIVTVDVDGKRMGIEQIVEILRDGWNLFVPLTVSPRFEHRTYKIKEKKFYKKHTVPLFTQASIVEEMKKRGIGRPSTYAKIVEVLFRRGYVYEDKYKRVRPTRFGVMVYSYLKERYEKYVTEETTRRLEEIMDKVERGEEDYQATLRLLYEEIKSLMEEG

T3: rGyr_hel (reverse gyrase helicase-like domain) (Thermotoga maritima, UniProt O51934 59-541)
T3 sequence: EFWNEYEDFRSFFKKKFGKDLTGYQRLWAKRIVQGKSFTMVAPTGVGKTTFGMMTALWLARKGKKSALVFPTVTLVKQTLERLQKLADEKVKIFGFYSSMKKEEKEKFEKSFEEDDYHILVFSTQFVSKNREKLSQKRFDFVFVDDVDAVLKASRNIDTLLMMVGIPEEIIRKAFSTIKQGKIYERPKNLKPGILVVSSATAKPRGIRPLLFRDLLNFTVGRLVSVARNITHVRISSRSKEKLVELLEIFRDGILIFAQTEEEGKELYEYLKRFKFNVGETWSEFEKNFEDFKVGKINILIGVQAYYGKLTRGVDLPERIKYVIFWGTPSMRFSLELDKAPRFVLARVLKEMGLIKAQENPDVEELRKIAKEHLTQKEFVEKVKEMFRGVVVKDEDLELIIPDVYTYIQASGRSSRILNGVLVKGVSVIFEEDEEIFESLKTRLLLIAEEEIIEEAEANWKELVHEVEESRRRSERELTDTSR


How the values were obtained:
Assay in all cases: fluorescence anisotropy
rGyr_hel K106Q [1] = biological target: T1, rGyr_hel K106Q
[2] = biological target: T2, rGyr_fl Y851F (full-length reverse …)
[3] = biological target: T3, rGyr_hel (reverse gyrase helicase-like …)
rGyr_hel K106Q [4] = biological target: T1, rGyr_hel K106Q; remark: listed apart in the source
[5] = biological target: T2, rGyr_fl Y851F (full-length reverse …); remark: listed apart in the source
[6] = biological target: T3, rGyr_hel (reverse gyrase helicase-like …); remark: listed apart in the source

Binder | Kd (rGyr_hel K106Q [1]) [nM] | Kd [2] [nM] | Kd [3] [nM] | Kd (rGyr_hel K106Q [4]) [nM] | Kd [5] [nM] | Kd [6] [nM]
60-base ssDNA (ssDNA) DNA: AAGCCAAGCTTCTAGAGTCAGCCCGTGATATTCATTACTTCTTATCCTAGGATCCCCGTT | 250 ± 30 | 41 ± 9 | 1200 ± 200 | 180 ± 30 | 35 ± 5 | 200 ± 30
60 bp dsDNA (dsDNA) DNA 1: AAGCCAAGCTTCTAGAGTCAGCCCGTGATATTCATTACTTCTTATCCTAGGATCCCCGTT DNA 2: AACGGGGATCCTAGGATAAGAAGTAATGAATATCACGGGCTGACTCTAGAAGCTTGGCTT | 2900 ± 600 | 330 ± 70 | 1000 ± 100 | 3800 ± 600 | 490 ± 60 | 3900 ± 600
